Data on two molecules can be found in patent publication US8034786B2, “Methods and means for controlling the endocytosis and subsequent degradation of growth hormone receptor” (Recharge B.V., priority 2005, dated 2011).

In experiment [1] the target is GHR constructs with one of seven amino acids of the UbE motif (indicated as underlined in …) mutated to alanine. In words: pull-down of 35S-labelled β-TrCP on GH-GHR beads, background (GHR 1-286) subtracted.
The next experiment concerns GHR and β-TrCP. Put plainly: Inhibition of the interaction between GHR and β-TrCP. The format is binding.

In experiment [1], “in vitro-translated- and 35S-labelled-TrCP2” returned an inhibition of binding as compared to wtGHR of over 60%.

B1: KQQRIKMLILPPVPVPKIKGIDPDLLKEGKLEEVNTILAIHDSYKPEFHSDDS WVEFIELD (peptide)
chain: KQQRIKMLILPPVPVPKIKGIDPDLLKEGKLEEVNTILAIHDSYKPEFHSDDSWVEFIELD
notes: 61 amino acid peptide of GHR, residues 270-331
B1: the “inhibition of F-box protein (β-TrCP) interaction with ubiquitin/proteasome binding site of GHR” value in the experiment on GHR and β-TrCP was “capable of providing inhibition”.
